Our source for the transcytosis of IgG alone (50 µg/ml) across HEC-1A cells, IgG in subnatant fluid by ELISA after 12 hours; about 0.4% values is PMC3836734.

The assay addresses Fc neonatal receptor (FcRn) (human (endogenous in HEC-1A)) (UniProt P55899).
Chain of UniProt P55899 (P55899 whole entry, looked up, tested part not stated): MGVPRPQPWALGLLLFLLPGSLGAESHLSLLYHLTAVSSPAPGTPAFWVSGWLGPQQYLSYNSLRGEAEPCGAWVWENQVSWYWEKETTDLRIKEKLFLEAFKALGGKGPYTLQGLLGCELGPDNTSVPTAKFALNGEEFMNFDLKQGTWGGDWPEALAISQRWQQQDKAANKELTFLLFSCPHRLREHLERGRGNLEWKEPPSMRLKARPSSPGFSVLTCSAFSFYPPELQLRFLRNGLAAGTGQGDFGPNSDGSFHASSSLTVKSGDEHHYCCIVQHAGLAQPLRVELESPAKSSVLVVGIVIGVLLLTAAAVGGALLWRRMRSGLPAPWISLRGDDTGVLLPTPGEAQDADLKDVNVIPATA

In turn, mAb VRC01, IgG1 (antibody) showed a transcytosis of IgG alone (50 µg/ml) across HEC-1A cells, IgG in subnatant fluid by ELISA after 12 hours; about 0.4% at pH 7.4 of 1.3%.
